The record followed here is patent US6121423, “Reshaped human antibody to human interleukin-6” (Chugai Seiyaku Kabushiki Kaisha, dated 2000).

The experiment concerns the target recombinant human IL-6 (human, UniProt P05231, biotinylated in the binding-inhibition assay (sites not given); unlabelled in the antigen-binding assay). In words: ELISA, IL-6 captured by MH166. Here is the method:
An ELISA plate for antigen-binding assay was prepared as follows. A 96-well plate was coated with mouse monoclonal antibody MH166 recognizing a different epitope of human IL-6 from that recognized by SK2 (Matsuda, T. et al., Eur. J. Immunol. 18, 951–956, 1988), and after blocking, recombinant human IL-6 was added thereto. A sample of the chimeric SK2 antibody was sequentially diluted, added to each well, and then an alkaline phosphatase-conjugated goat anti-human IgG antibody (Sigma) was added thereto. After incubation and washing, substrate was added, and absorbance at 405 nm was measured.

B1: chimeric SK2 antibody NTS (antibody, V domains shown)
VH: QVTLKESGPGILQPSQTLSLTCSFSGFSLSTSGMTVGWIRQPSGKGLEWLAHIWWNDDKYYNPALKGRLTISKDTSNNQVFLKIASVVTADTATYYCARMEDYDEAMDYWGQGTSVTVSS
VL: DIQMTQSPASLSVSVGETVTITCRASENIYSNLAWYQQKQGKSPQLLVYAATYLADGVPSRFSGSGSGTQYSLKINSLQSEDFGSYYCQHFWGTPPFGSGTKLEIK
For the molecule B1, the binding result is “binds”.
